Test results taken from article PMC10706272, “Improving the Thermostability of Thermomyces lanuginosus Lipase by Restricting the Flexibility of N-Terminus and C-Terminus Simultaneously via the 25-Loop Substitutions” (International Journal of Molecular Sciences, 2023).

Substrate: CCCCCCCCCCCCCCCC(=O)Oc1ccc([N+](=O)[O-])cc1
Assay: initial-rate hydrolysis of pNPP, p-nitrophenol release, Michaelis-Menten fit
Type: biochemical, Thermomyces lanuginosus
Conditions: 37 °C, pH 9.0, Tris-HCl 100 mM, apparent Km, pNPP 0.25-10 mM
Text: initial-rate hydrolysis of pNPP, p-nitrophenol release, Michaelis-Menten fit on TLL (Thermomyces lanuginosus lipase)

B1: TLL (Thermomyces lanuginosus lipase) (Thermomyces lanuginosus) (protein)
chain: EVSQDLFNQFNLFAQYSAAAYCGKNNDAPAGTNITCTGNACPEVEKADATFLYSFEDSGVGDVTGFLALDNTNKLIVLSFRGSRSIENWIGNLNFDLKEINDICSGCRGHDGFTSSWRSVADTLRQKVEDAVREHPDYRVVFTGHSLGGALATVAGADLRGNGYDIDVFSYGAPRVGNRAFAEFLTVQTGGTLYRITHTNDIVPRLPPREFGYSHSSPEYWIKSGTLVPVTRNDIVKIEGIDATGGNNQPNIPDIPAHLWYFGLIGTCL
With B1 the Km was 220 ± 50 µM, the Vmax was 402 µmol/min/mg and the kcat was 594 ± 4 s⁻¹. The kcat/Km was 2.72e+06 ± 54000 M⁻¹ s⁻¹.
